The target of one experiment is T1, LILRB2-His antigen (UniProt Q8N423 22-460, limits assumed).
T1 construct: Coated on ELISA plates; also used for phage panning; also called LILRB2 antigen; not shown: His tag
Put plainly: indirect ELISA, coated LILRB2-His. As to the method: ELISA binding EC of LILRB2 antibodies. The ELISA binding EC₅₀ of these 24 antibodies were measured by indirect ELISA. […] After incubation, HRP-conjugated goat anti-human Fc secondary antibody was incubated with the plates. The TMB substrate was added for color development and measurement of absorbance at 450 nm.

Experiment [1] deals with T2, LILRB2 (antigen in solution, Octet RED 96) (UniProt Q8N423 22-460, limits assumed).
T2 construct: also called LILRB2 solution
Description: BLI (Octet RED 96), antibody on protein A biosensor, LILRB2 in solution. As to the method:
Affinity measurement of blocking antibodies. Affinities of the 5 blocking antibodies were measured on Octet RED 96 system.

The target of experiment [2] is T3, full length human LILRB2 stably expressed on HEK293 cells (human, UniProt Q8N423 22-597).
T3 construct: whole, on cells; also called HEK293_LILRB2
Put plainly: flow cytometry, HEK293 cells expressing full length human LILRB2. The procedure:
FIG. 31. Binding of LILRB2 antibodies on HEK293 stably expressing full length human LILRB2. Fifty thousand cells were incubated with a dilution series (40-0.0006 μg/mL) of LILRB2 antibodies in a final volume of 100 μL. Bound antibodies were detected with anti-human Fc-specific secondary antibody conjugated to AF647. All incubations were performed for 30 minutes at 4° C. Data shown is averaged geometric mean fluorescence intensity ± standard error of the mean (s.e.m.) after sample acquisition (in duplicates) in flow cytometer (BD FACS Celesta) and subtracted by background fluorescence of samples incubated with secondary antibody only.

In experiment [3] the target is T3, full length human LILRB2 stably …. Put plainly: competition flow cytometry, inhibition of HLA-G-His binding to HEK293 cells expressing LILRB2. The procedure: FIG. 33. […] All incubations were performed for 30 minutes at 4° C. Data shown is averaged geometric mean of fluorescence intensity ± standard error of the mean (s.e.m.) from duplicate samples acquired in a flow cytometer (BD FACS Celesta).

B1: B2-15 (antibody, V domains shown)
VH: EVQLVQSGAEVKKSGASVKVSCKSSGYTFTNYGISWVRQAPGQGLEWMGWISGDAGDTKFAQKFQGRVTMTTDTSTTTTYMELRSLRSDDTAVYYCARDGEYIPMFRGFDNYYGLDVWGQGTLVSVSS
VL: QSVLTQPPSASATPGQRVTISCSGRNANIGSNPVNWYQQLPGTAPRLVMYSNNQRPSGVPDRFSGSKSGTSASLAISGLQSEDEADYYCEGWDDSLNGYVFGTGTKVTVL
notes: also called B-15; B2-15_HC
The molecule B1 showed an EC50 in the experiment with LILRB2-His antigen of 46.5 nM. Further, in experiment [1], the Kd worked out at 18.9 nM, the koff was found to be 0.00565 s⁻¹ and the kon was 299000 M⁻¹ s⁻¹. Also, in experiment [2], the EC50 is 0.101 µg/mL. Further, the IC50 in experiment [3] was 0.16 µg/mL.

B2: B2-16 (antibody, V domains shown)
VH: QVQLVQSGAEVKKPGSSVKVSCKASGGTFSSYAISWVRQAPGQGLEWMGGIIPIFGTANYAQKFQGRVTITADESTSTAYMELSSLRSEDTAVYYCASGIIPDNPYGMDVWGQGTMVSVSS
VL: DIVMTQSPLSLPVTLGQPASISCTSSQSLVYSDGNTYLNWFHQRPGQSPRRLFYKVSNRASGVPDRFSGSGSGTDFTLKISRVEAEDLGVYYCMQGTHWPVTFGQGTRLEIK
notes: also called B2-16_HC; B2-16_LC
In the experiment with LILRB2-His antigen, B2 came in with an EC50 of 9.97 nM. In experiment [1], this molecule showed a Kd of 7.45 nM, a koff of 0.0009 s⁻¹ and a kon of 121000 M⁻¹ s⁻¹. The molecule further returned an EC50 in experiment [2] of 0.277 µg/mL. Also, the IC50 in experiment [3] was 0.915 µg/mL.

B3: B2-19 (antibody, V domains shown)
VH: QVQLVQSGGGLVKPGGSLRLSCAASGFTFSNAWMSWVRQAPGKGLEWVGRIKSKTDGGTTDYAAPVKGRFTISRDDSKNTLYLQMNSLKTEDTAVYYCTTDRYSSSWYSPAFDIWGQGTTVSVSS
VL: QPVLTQPPSVSEAPRQRVTISCSGSSSNIGNNVVNWYQQLPGKAPKLLIYYDDLLPSGVSDRFSGSKSGTSASLAISGLQSEDEADYYCATWDDSLNGPVFGGGTKLTVL
notes: also called B2-19_HC; B2-19_LC
For the molecule B3, in the experiment with LILRB2-His antigen, the EC50 was 3.82 nM. In experiment [1], this molecule had a Kd of 1.84 nM, a koff of 0.00046 s⁻¹ and a kon of 250000 M⁻¹ s⁻¹. This molecule also showed an EC50 in experiment [2] of 0.208 µg/mL. For the same molecule, in experiment [3], the IC50 turned out to be 0.583 µg/mL.

B4: B2-17 (antibody, V domains shown)
VH: EVQLLDSGPRLLKPSETLSLTCGVSGVSTSSTHWWSWVRQTPGKGLEWIGEILHNGNTNSNPSLKSRVSMSIDKSRNQFSLQLKSMTAADTAVYYCASASPNWGASGAFDAWAQGTMVTVSS
VL: QSVLTQPPSASATPGQRVTISCSGSSSNIGSNPVNWYQQVPGMAPELVMYSDNQRPSGVPDRFSGSNSGTSASLAISGLQSEDEADYYCSTWDDSLNGLVFGTGTKVTVL
notes: also called B2-17_HC; B2-17_LC
With B4, the EC50 with LILRB2-His antigen was found to be 24.6 nM. In addition, in experiment [1], the Kd came to 35.9 nM, the off-rate constant (koff) is 0.0121 s⁻¹ and the kon worked out at 338000 M⁻¹ s⁻¹. This molecule also returned an EC50 in experiment [2] of 0.105 µg/mL. The same molecule had an IC50 in experiment [3] of 0.209 µg/mL.

B5: B2-7 (antibody, V domains shown)
VH: EVQLVESGGGVVQPGRSLRLSCAASGFTISSYGMHWVRQAPGKGLEWVAVISYDGSNKYYADSVKGRFTISRDNSKNTLYLQMNSLRVEDTAVYYCAKDLLLRYFDWSPKYYYNGMDVWGQGTMVTVSS
VL: QSVLTQPPSVSVAPGKTARITCGGNNIGSKSVHWYQQKPGQAPVLVVYDDSDRPSGIPERFSGSNSGNTATLTISRVEAGDEADYYCQVWDSSSDHPGVFGTGTKVTVL
notes: also called B2-7_HC; B2-7_LC
Molecule B5 showed an EC50 in the experiment with LILRB2-His antigen of 82.9 nM. Moreover, in experiment [1], the Kd turned out to be 15.2 nM, the koff worked out at 0.00305 s⁻¹ and the kon turned out to be 200000 M⁻¹ s⁻¹. Further, the EC50 in experiment [2] came out at 0.212 µg/mL. The concentration for half-maximal inhibition (IC50) in experiment [3] is 0.507 µg/mL.
